# Measured values from US20250027068A1.
# Target: pooled human IgG (human)
# Test: cell-based or functional assay
Binder,"Enzyme Activity Endpoint Assay, Fab′2 [ng/µL]","Enzyme Activity Endpoint Assay, Fc [ng/µL]","Enzyme Activity Endpoint Assay, IgG [ng/µL]","Enzyme Activity Endpoint Assay, scIgG [ng/µL]"
VRT-57 (Fc fusion) VTSVWTKGVTPPTDFIKGEDVFHAPYKAGQGWYDITKTFNGKDNLLCGAATAGNMLHWWFDQNKEYIEAYLKKHPEKQKIIFNNQELFDLKAAINTKGSQKNSELFNYFRDKAFPNLSARRLGVFPDLVLDMFINGYYLNVTKTQTTDVNRTYQEKDKRGGIFDAVFTRGVQSKLLTSRHDFKEKGLKEISDLIKQELTEGKALGLSHTYANVRINHVINLWGADFDSDGNLKAIYVTDSDSNASIGMKKYFVGVNSAGKVAISAKEIKEDNIGAQVLGLFTLSTGQDIWNQTNDKTHTCPPCPAPEAAGAPSVFLFPPKPKDTLMISRTPEVTCVVVDVSHEDPEVKFNWYVDGVEVHNAKTKPREEQQNSTYRVVSVLTVLHQDWLNGKEYKCKVSNKALKAPIEKTISKAKGQPREPQVYTLPPSRDELTKNQVSLTCLVKGFYPSDIAVEWESNGQPENNYKTTPPVLDSDGSFFLYSKLTVDKSRWQQGNVFSCSVMHEALHNHYTQKSLSLSPG,0,97,903,27
VRT-59 (Fc fusion) VTSVWTKGVTPPADFTQGEDVFHAPYVANQGWYDITKTFNGKDNLLCGAATAGNMLHWWFDQNKEYIEAYLKKHPEKQKIIFNNQELFDLKAAINTKGSQKNSELFNYFRDKAFPNLSARRLGVFPDLVLDMFINGYYLNVTKTQTTDVNRTYQEKDKRGGIFDAVFTRGVQSKLLTSRHDLKNKGLKEISDLIKQELTEGKALGLSHTYANVRINHVINLWGADFDSDGNLKAIYVTDSDSNASIGMKKYFVGVNSAGKVAISAKEIKEDNIGAQVLGLFTLSTGQDIWNQTNDKTHTCPPCPAPEAAGAPSVFLFPPKPKDTLMISRTPEVTCVVVDVSHEDPEVKFNWYVDGVEVHNAKTKPREEQQNSTYRVVSVLTVLHQDWLNGKEYKCKVSNKALKAPIEKTISKAKGQPREPQVYTLPPSRDELTKNQVSLTCLVKGFYPSDIAVEWESNGQPENNYKTTPPVLDSDGSFFLYSKLTVDKSRWQQGNVFSCSVMHEALHNHYTQKSLSLSPG,0,157,726,107
VRT-58 (Fc fusion) VTSVWTKGVTPPTDFIKGEDVFHAPYKAGQGWYDITKTFNGKDNLLCGAATAGNMLHWWFDQNKEYIEAYLKKHPEKQKIIFNNQELFDLKAAINTKGSQKNSELFNYFRDKAFPNLSARRLGVFPDLVLDMFINGYYLNVTKTQTTDVNRTYQEKDKRGGIFDAVFTRGVQSKLLTSRHDLKNKGLKEISDLIKQELTEGKALGLSHTYANVRINHVINLWGADFDSDGNLKAIYVTDSDSNASIGMKKYFVGVNSAGKVAISAKEIKEDNIGAQVLGLFTLSTGQDIWNQTNDKTHTCPPCPAPEAAGAPSVFLFPPKPKDTLMISRTPEVTCVVVDVSHEDPEVKFNWYVDGVEVHNAKTKPREEQQNSTYRVVSVLTVLHQDWLNGKEYKCKVSNKALKAPIEKTISKAKGQPREPQVYTLPPSRDELTKNQVSLTCLVKGFYPSDIAVEWESNGQPENNYKTTPPVLDSDGSFFLYSKLTVDKSRWQQGNVFSCSVMHEALHNHYTQKSLSLSPG,0,191,527,236
